Results reported in patent US20150361176A1 (GlaxoSmithKline, published 2015).
Where a chain is given by its changes, count along the chain named.

Legend:
[1] = biological target: T1, human TGF-βRII on cells (SBE-bla HEK 293T cells; A549 cells) (human, UniProt P37173 23-567); test: cell-based or functional assay
[2] = biological target: T2, recombinant human TGF-β RII/Fc chimera protein (human, UniProt P37173 24-159); test: SPR Biacore, purified dAb; antigen taken as human TGF-β RII/Fc
T2 construct: range 24-159; Made in HEK-F cells; Biotinylated where it was put on SA chips, otherwise captured by anti-human IgG; also called human TGFbRII/Fc; hRII-Fc; not shown: Fc region of human IgG1

[3] = biological target: T2, recombinant human TGF-β RII/Fc chimera …; test: SPR Biacore, against parent DOM23h-439
[4] = biological target: T3, mouse TGF-βRII on MC3T3-E1 cells (mouse osteoblasts) (mouse, UniProt Q62312 24-567); test: cell-based or functional assay
T3 sequence (looked up): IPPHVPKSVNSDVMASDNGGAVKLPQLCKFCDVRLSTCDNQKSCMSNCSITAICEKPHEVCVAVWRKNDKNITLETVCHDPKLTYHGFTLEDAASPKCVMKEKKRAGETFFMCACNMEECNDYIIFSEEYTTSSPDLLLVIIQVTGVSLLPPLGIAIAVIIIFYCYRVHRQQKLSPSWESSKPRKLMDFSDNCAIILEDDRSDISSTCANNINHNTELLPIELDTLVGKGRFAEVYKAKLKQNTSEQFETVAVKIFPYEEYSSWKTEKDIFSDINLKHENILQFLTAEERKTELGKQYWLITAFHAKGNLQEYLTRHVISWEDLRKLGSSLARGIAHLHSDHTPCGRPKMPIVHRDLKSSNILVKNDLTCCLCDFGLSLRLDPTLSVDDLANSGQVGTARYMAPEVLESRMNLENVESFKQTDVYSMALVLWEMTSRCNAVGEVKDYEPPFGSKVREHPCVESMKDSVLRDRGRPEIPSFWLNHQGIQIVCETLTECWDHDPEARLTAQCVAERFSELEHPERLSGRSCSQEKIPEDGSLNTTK

[5] = biological target: T1, human TGF-βRII on cells (SBE-bla HEK …); test: cell-based or functional assay; remark: listed apart in the source
[6] = biological target: T1, human TGF-βRII on cells (SBE-bla HEK …); test: cell-based or functional assay; remark: listed apart in the source
[7] = biological target: T2, recombinant human TGF-β RII/Fc chimera …; test: SPR Biacore, against parent DOM23h-855
[8] = biological target: T2, recombinant human TGF-β RII/Fc chimera …; test: SPR Biacore, against parent DOM23h-843
[9] = biological target: T2, recombinant human TGF-β RII/Fc chimera …; test: SPR Biacore, human TGFbRII-FC, 1:1 model
[10] = biological target: T2, recombinant human TGF-β RII/Fc chimera …; test: SPR Biacore
cynomolgus TGF-β RII/Fc = biological target: T4, cynomolgus TGF-β RII/Fc (cynomolgus); test: SPR Biacore
T4 construct: extracellular domain; also called Cyno TGFBRII; Cyno TGFbRII

[11] = biological target: T3, mouse TGF-βRII on MC3T3-E1 cells (mouse …); test: cell-based or functional assay; remark: listed apart in the source
[12] = biological target: T1, human TGF-βRII on cells (SBE-bla HEK …); test: cell-based or functional assay; remark: listed apart in the source

T2 sequence (P37173 24-159 limits assumed, change not shown): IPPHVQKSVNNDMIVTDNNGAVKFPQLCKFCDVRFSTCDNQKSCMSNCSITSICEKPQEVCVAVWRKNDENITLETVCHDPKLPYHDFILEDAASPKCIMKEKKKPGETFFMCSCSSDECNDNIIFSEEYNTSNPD
T1 sequence (P37173 23-567): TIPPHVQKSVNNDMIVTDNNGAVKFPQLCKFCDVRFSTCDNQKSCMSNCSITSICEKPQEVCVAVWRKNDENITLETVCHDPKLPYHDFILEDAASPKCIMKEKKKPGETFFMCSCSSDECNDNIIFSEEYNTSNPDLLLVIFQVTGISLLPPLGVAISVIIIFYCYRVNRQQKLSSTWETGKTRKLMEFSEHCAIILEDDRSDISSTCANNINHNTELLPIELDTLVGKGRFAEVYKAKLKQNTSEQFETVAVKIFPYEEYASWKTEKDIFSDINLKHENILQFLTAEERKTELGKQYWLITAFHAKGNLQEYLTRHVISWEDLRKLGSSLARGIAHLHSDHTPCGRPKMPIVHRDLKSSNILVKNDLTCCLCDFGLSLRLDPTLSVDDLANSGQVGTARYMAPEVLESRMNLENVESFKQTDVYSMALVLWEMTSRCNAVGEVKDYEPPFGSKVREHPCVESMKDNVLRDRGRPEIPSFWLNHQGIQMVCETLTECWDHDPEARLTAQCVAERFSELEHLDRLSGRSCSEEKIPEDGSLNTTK

B1: DOM23h-439 (VHH)
VHH: EVQLLESGGGLVQPGGSLRLSCAASGFTFGTEQMWWVRQAPGKGLEWVSRIDSPGGRTYYADSVKGRFTISRDNSKNTLYLQMNSLRAEDTAVYYCAKRHAAGVSGTYFDYWGQGTLVTVSS
Q: What does the source list for B1?
A: Mean IC50 (nM), SBE-bla HEK 293T Cell Sensor assay (h2) [1]: 3570 nM; Kd [2]: 24.2 nM; koff [2]: 0.0502 s⁻¹; kon [2]: 2.08e+06 M⁻¹ s⁻¹

B2: DOM23h-439-20 (VHH)
VHH: B1 VHH with W47F
notes: human VH dAb, error-prone matured; expressed from pDOM13, tag not described
Q: B2 was tested. Which “Mean IC50 (nM), SBE-bla HEK 293T Cell Sensor assay (h2)” value (from here on “Mean IC50 (nM)”) [1] did it give?
A: 48 nM

Q: What about the Kd [2] of the same binder?
A: 0.799 nM

Q: What about the koff [2] of the same binder?
A: 0.00354 s⁻¹

Q: And the kon [2]?
A: 4.43e+06 M⁻¹ s⁻¹

Q: What about the “KD Fold improvement” value [3] of the same binder?
A: 30.3 fold

Q: And the “ka Fold improvement” value [3]?
A: 2.1 fold

Q: What about the “kd Fold improvement” value [3] of the same binder?
A: 14.2 fold

B3: DOM23m-101 (VHH, not shown: small tags and cut ends)
VHH: EVQLLESGGGLVQPGGSLRLSCAASGFTFSEYDMAWVRQAPGKGLEWVSRIRSDGVRTYYADSVKGRFTISRDNSKNTLYLQMNSLRAEDTAVYYCAKDRAKNGWFDYWGQGTLVTVSS
Q: B3 was tested. Which “max % inhibition, Average (Mouse 3T3 cell assay, method m2)” value [4] did it give?
A: 48%

Q: And the “max % inhibition, Average (SBE-bla HEK CELLSENSOR assay, h2)” value [5]?
A: 59.8%

B4: DOM23h-855 (VHH)
VHH: EVQLLESGGGLVQPGGSLRLSCAASGFTFENTSMGWVRQAPGKGLEWVSRIDPKGSHTYYADSVKGRFTISRDNSKNTLYLQMNSLRAEDTAVYYCAKQRELGKSHFDYWGQGTLVTVSS
notes: human VH domain antibody (dAb), naive lead; parent of DOM23h-855-21; not shown: C-terminal FLAG tag from vector pDOM10
Q: For B4, which “Mean IC50 (nM)” value [1] is on record?
A: > 25000 nM

Q: What about the Kd [2] of the same binder?
A: 941 nM

Q: What about the koff [2] of the same binder?
A: 0.315 s⁻¹

Q: And the kon [2]?
A: 335000 M⁻¹ s⁻¹

Q: And the “IC50 nM, Mean (SBE-bla HEK 293T cell sensor assay, h2)” value [6]?
A: > 4470 nM

B5: DOM23h-855-21 (VHH)
VHH: B4 VHH with A61T, H106Y
notes: as for B2
Q: For B5, which “Mean IC50 (nM)” value [1] is on record?
A: 18600 nM

Q: And the Kd [2]?
A: 18 nM

Q: And the koff [2]?
A: 0.0336 s⁻¹

Q: What about the kon [2] of the same binder?
A: 1.86e+06 M⁻¹ s⁻¹

Q: And the “KD Fold improvement” value [7]?
A: 52.3 fold

Q: What about the “ka Fold improvement” value [7] of the same binder?
A: 5.6 fold

Q: And the “kd Fold improvement” value [7]?
A: 9.4 fold

B6: DOM23m-71 (VHH, not shown: small tags and cut ends)
VHH: EVQLLESGGGLVQPGGSLRLSCAASGFTFMDYRMYWVRQAPGKGLEWVSGIDPTGLRTYYADSVKGRFTISRDNSKNTLYLQMNSLRAEDTAVYYCAKIKWGEMGSYKTFDYWGQGTLVTVSS
Q: B6 was tested. Which “max % inhibition, Average (Mouse 3T3 cell assay, method m1)” value [4] did it give?
A: 44.9%

Q: What about the “max % inhibition, Average (Human IL-11 release, h1)” value [5] of the same binder?
A: -2%

B7: DOM23m-4 (VHH, not shown: small tags and cut ends)
VHH: EVQLLESGGGLVQPGGSLRLSCAASGFTFTTYGMGWVRQAPGKGLEWVSWIEKTGNKTYYADSVKGRFTISRDNSKNTLYLQMNSLRAEDTAVYYCAKAGRHIKVRSRDFDYWGQGTLVTVSS
Q: What does the source list for B7?
A: max % inhibition, Average (Mouse 3T3 cell assay, method m1) [4]: 73.3%; max % inhibition, Average (Human IL-11 release, h1) [5]: 70.7%; max % inhibition, Average (SBE-bla HEK CELLSENSOR assay, h2) [5]: 69%

B8: DOM23m-62 (VHH, not shown: small tags and cut ends)
VHH: EVQLLESGGGLVQPGGSLRLSCAASGFTFGQESMYWVRQAPGKGLEWVSAISGSGGSTYYADSVKGRFTISRDNSKNTLYLQMNSLRAEDTAVYYCAKSGTRIKQGFDYWGQGTLVTVSS
Q: Which results are given for B8?
A: max % inhibition, Average (Mouse 3T3 cell assay, method m1) [4]: 78.6%; max % inhibition, Average (Human IL-11 release, h1) [5]: 79%

B9: DOM23h-843 (VHH)
VHH: EVQLLESGGGLVQPGGSLRLSCAASGFTFDQDRMWWVRQAPGKGLEWVSAIESGGHRTYYADSVKGRFTISRDNSKNTLYLQMNSLRAEDTAVYYCAKQNESGRSGFDYWGQGTLVTVSS
notes: human VH domain antibody (dAb), naive lead; parent of DOM23h-843-13; not shown: C-terminal FLAG tag from vector pDOM10
Q: Which results are given for B9?
A: Mean IC50 (nM), SBE-bla HEK 293T Cell Sensor assay (h2) [1]: 1950 nM; Kd [2]: 378 nM; koff [2]: 0.343 s⁻¹; kon [2]: 905000 M⁻¹ s⁻¹; IC50 nM, Mean (SBE-bla HEK 293T cell sensor assay, h2) [6]: > 9010 nM

B10: DOM23h-843-13 (VHH)
VHH: B9 VHH with K98N, E101K
notes: as for B2
Q: Which results are given for B10?
A: Mean IC50 (nM), SBE-bla HEK 293T Cell Sensor assay (h2) [1]: 540 nM; Kd [2]: 4.13 nM; koff [2]: 0.0211 s⁻¹; kon [2]: 5.11e+06 M⁻¹ s⁻¹; KD Fold improvement [8]: 91.7 fold; ka Fold improvement [8]: 5.6 fold; kd Fold improvement [8]: 16.2 fold

B11: DOM23m-72 (VHH, not shown: small tags and cut ends)
VHH: EVQLLESGGGLVQPGGSLRLSCAASGFTFMDYDMSWVRQAPGKGLEWVSMIREDGGKTYYADSVKGRFTISRDNSKNTLYLQMNSLRAEDTAVYYCAKARVPYRRGHRDNFDYWGQGTLVTVSS
Q: Which “max % inhibition, Average (Mouse 3T3 cell assay, method m1)” value [4] does the source give for B11 here?
A: 17.5%

Q: And the “max % inhibition, Average (Human IL-11 release, h1)” value [5]?
A: 1.7%

B12: DOM23h-271-22 (VHH)
VHH: EVQLLESGGGLVQPGGSLRLSCAASGFTFTEYRMWWVRQAPGKGLEWVSAIEPIGNRTYYADSVKGRFTISRDNSKNTLYLQMNSLRAEDTAVYYCAKQMPGQKWMAKSRFDYWGQGTLVTVSS
notes: human VH dAb from DNA display; expressed from pDOM13
Q: With B12 as the binder, how does the Kd [9] read?
A: 0.286 nM

Q: What about the koff [9] of the same binder?
A: 0.000919 s⁻¹

Q: What about the kon [9] of the same binder?
A: 3.22e+06 M⁻¹ s⁻¹

Q: And the Kd [10]?
A: 0.202 nM

Q: What about the Kd (cynomolgus TGF-β RII/Fc) of the same binder?
A: 0.225 nM

Q: And the “Mouse 3T3 Luciferase assay IC50” value [11]?
A: > 17.8 µM

Q: What about the “Human Cell sensor IC50” value [12] of the same binder?
A: 39 nM

B13: DOM23h-271-27 (VHH)
VHH: B12 VHH with N56Q, R57K, M100I, Q103R, M106T, K108N, T121I
notes: as for B12
Q: For B13, which Kd [9] is on record?
A: 0.578 nM

Q: And the koff [9]?
A: 0.00126 s⁻¹

Q: What about the kon [9] of the same binder?
A: 2.17e+06 M⁻¹ s⁻¹

B14: DOM23h-352 (VHH, not shown: small tags and cut ends)
VHH: EVQLLESGGGLVQPGGSLRLSCAASGFTFDKYKMAWVRQAPGKGLEWVSLIFPNGVPTYYANSVKGRFTISRDNSKNTLYLQMNSLRAEDTAVYYCAKYSGQGRDFDYWGQGTLVTVSS
Q: How did the “max % inhibition, Average (Mouse 3T3 cell assay, method m2)” value [4] turn out when B14 was run?
A: 48%

Q: And the “max % inhibition, Average (SBE-bla HEK CELLSENSOR assay, h2)” value [5]?
A: 46.7%
